Results reported in patent US11957762B2, “Immune tolerant and non-immune tolerant elastin-like recombinant peptides and methods of use” (University of Utah Research Foundation, priority 2015, dated 2024).
“Also recorded” adds a separate entry of the source. Where two headings read alike, the source gives them in different places.

Legend:
[1] = test system: regular 4T1-luc cells; experiment: Cytotoxicity, regular 4T1-luc cells; format: cell-based, murine
Experimental: (§1) Cytotoxicity studies. The cytotoxicity was measured as previously described (Zhao, et al; Mol. Pharm, 2014; 11(8):2703-12). The incubation time was 72 hours. 4T1-lu mammosphere cells were generated as the previously described (Zhao, et al; Mol. Pharm, 2014; 11(8):2703-12).

[2] = Tissue distribution of Sali-ABA in 4T1-luc tumored mice; details: mouse, in vivo, 24 h
Experimental: (§2) Pharmacokinetics and biodistribution study. Sali-ABA concentrations in blood and tissues were analyzed, and the concentrations were analyzed as previously described (Zhao, et al; Mol. Pharm, 2014; 11(8):2703-12).
The aforementioned slow clearance and particle size of iTEP-MPBH-ABA-Sali could enable the conjugate to leverage the EPR effect and, therefore, more efficiently accumulate in tumors. […] Tumors and all following organ samples were collected at 24 hours post administration. The quantities of Sali-ABA were expressed as percentage of initial dose normalized by weight of organs, ID %/gram. The data were analyzed by one-way ANOVA. P-value is shown in the figure and * indicates a significant difference. At the same time, there was a reduction of Sali-ABA accumulation in the heart when iTEP-MPBH-ABA-Sali NP was compared with free Sali, although the difference was not statistically significant (0.57±0.18 ID %/gram vs 0.86±0.11 ID %/gram, FIG. 11C). The data were analyzed by one-way ANOVA. The reduction may benefit the toxicity profile of the NP as the heart is an organ sensitive to Sali (Bastianello, et al., J S Afr Vet Assoc, 1996; 67(1):38-41). […] The data were analyzed by one-way ANOVA. P-values are shown in the figure and * indicates a significant difference.

[3] = Hydrodynamic diameter by dynamic light scattering (DLS); format: physicochemical; details: 25 μM in PBS at 37° C.
Experimental: Characterization of the size of iTEPB-pOVA and iTEPB-iTEPA-pOVA fusions. The particle size distribution of the iTEP fusions was determined by dynamic light scattering (DLS) using a Zetasizer Nano-ZS instrument (Malvern Instruments, Malvern, UK) as previously described.^(29) The fusions were prepared at 5 μM and 25 μM in PBS and equilibrated at 37° C. for the measurement. The reported results represented the average particle size by number.
Dynamic light scattering (DLS) measurement. The measurement was carried out as previously described. iTEP, iTEP-MPBH-ABA-Sali conjugate, or PTX NP were measured at 25 μM in PBS at 37° C. using a Malvern Zetasizer Nano system (Malvern, Chester County, PA, USA).
Characterization of hydrodynamic diameters of iTEP-vaccine fusions. Hydrodynamic diameters of iTEP-vaccine fusions were determined by dynamic light scattering (DLS) using a Zetasizer Nano-ZS instrument (Malvern Instruments, Malvern, UK) as previously described (Zhao et al., Mol Pharm, 2014; 11(8):2703-12). The samples were resuspended at concentrations of 5, 25, 50, and 100 μM in PBS and sat at room temperature overnight before measurement. Some samples were kept in 5% C02 at 37° C. for 16 h before DLS measurement. Hydrodynamic diameter results of the sample of 5 μM concentration were reported because they were not affected by the used sample concentrations. Hydrodynamic diameters were presented using the size-by-number distribution approach. Z-average values and sizes-by-intensity data, however, were also reported.

[4] = test system: mammosphere 4T1-luc cells; experiment: Cytotoxicity, mammosphere 4T1-luc cells (CSCs); format: cell-based, murine
Experimental: as §1

[5] = In vitro Sali-ABA release assay; format: physicochemical; details: neutral pH (PBS), up to 100-hour monitoring
Experimental: In vitro Sali-ABA release assay. The release of Sali-ABA from iTEP-MPBH-ABA-Sali NP was measured after the NP was incubated in PBS (pH=7.4) or 0.1M sodium acetate/acetic acid buffer (pH=5) at 37° C. Multiple repeats of each mixture were kept in separate Eppendorf tubes and shaken at 100 rpms at 37° C. At predetermined time points, free Sali-ABA in one tube of sample was determined by HPLC based on a standard curve of Sali-ABA. The standard curve was established at 280 nm. The HPLC setup was the same as the described herein.
The relationship of the percentage of Sali-ABA release (F) with time (t) was fitted using the following equation and GraphPad V5.0. F%,released=100[…]

[6] = Pharmacokinetics (plasma Sali-ABA) after intravenous administration; set-up: species or system mice; details: mouse, in vivo
Experimental: as §2
Results. The pharmacokinetics of Sali-ABA and iTEP-MPBH-ABA-Sali were compared after they were administered intravenously to mice at a dose of 20 mg/Kg Sali-ABA equivalent. Plasma concentrations of Sali-ABA after the administration of either formulation were monitored for up to 24 hours (FIG. 11A). The temporal changes of the concentrations were fitted into a two-compartment pharmacokinetics model.

[7] = test system: 4T1-luc orthotopic tumors; experiment: Tumor growth, metastasis and survival study; format: in vivo, Balb/c mice
Experimental: Tumor growth study. Balb/c mice were inoculated subcutaneously with 10^6 4T1-luc cells in 50 μL PBS at the #9 mammary glands. At the seventh day after inoculation when the volumes of all tumors reached or exceeded 100 mm^3, the mice were randomly assigned into groups as described in FIGS. 12 and 13. The dosing and dosing schedules are as following: • 1. PBS control (three day interval); Sali-ABA (20 mg/Kg BW, three-day interval), • 2. iTEP-MPBH-ABA-Sali NP (20 mg/Kg BW, three-day interval), • 3. PTX NP (10 mg/Kg BW, three-day interval), • 4. PTX NP and iTEP-MPBH-ABA-Sali combination, iTEP-MPBH-ABA-Sali NP on the first day (20 mg/Kg BW), PTX NP on the second day (10 mg/Kg BW), then two-day interval.
Seven total doses were administered intravenously. The length and width dimensions of tumors were measured with a caliper every other day. Tumor volumes were estimated using the formula: Tumor Volume=(length×width^2/2) (Zhang et al., Biomaterials, 2012; 33(2):679-91). Also, mouse body weight was recorded the same day when the tumor size was measured. The treatments of PTX NP and the combinational therapy were done after the results of the first three treatment groups were obtained.
Moreover, in order to monitor metastasis, bioluminescence signals released from 4T1-luc cells were monitored as previously described (Tao et al., BMC Cancer, 2008; 8(1):228). Specifically, experimental mice were injected intraperitoneally with 100 μl of D-luciferin (15 mg/ml) at predetermined time points (twice each week, 3-4 days interval). At 15 minutes after luciferin injection, the mice were imaged under anesthesia in a Xenogen IVIS 200 biophotonic imager (PerkinElmer, Inc., MA, USA). The bioluminescence intensity was denoted using photon emission from the subject or radiance in the unit of photons/sec/cm^2/sr (steradian). […] The overall survival time was counted as days between tumor inoculation and mouse sacrifice. Metastasis-free survival and overall survival were analyzed by the Kaplan-Meier method, and the median survival of each groups were compared using the Log-rank test with GraphPad V5.0.

Molecule: CC[C@@H](C(=O)[C@@H](C)[C@@H](O)[C@H](C)[C@@H]1O[C@@H]([C@@H](CC)C(=O)O)CC[C@@H]1C)[C@H]1O[C@]2(C=C[C@@H](O)[C@]3(CC[C@@](C)([C@H]4CC[C@](O)(CC)[C@H](C)O4)O3)O2)[C@H](C)C[C@@H]1C [Sali, Salinomycin, reference compound]
- IC50 ([1]; Mus musculus, 4T1-Luc, 72 h): 4.4 µM
- Sali-ABA accumulation in the heart [2]: 0.86±0.11 ID %/gram

B1: iTEP-MPBH-ABA-Sali: conjugate of hydrophilic iTEP (SEQ ID NO: 58) with Sali-ABA-MPBH, self-assembled into a NP (conjugate)
chain: GGAGVPGGAGVPGGAGVPGGAGVPGGAGVPGGAGVPGGAGVPGGAGVPGGAGVPGGAGVPGGAGVPGGAGVPGGAGVPGGAGVPGGAGVPGGAGVPGGAGVPGGAGVPGGAGVPGGAGVPGGAGVPGGAGVPGGAGVPGGAGVPGGAGVPGGAGVPGGAGVPGGAGVPGGAGVPGGAGVPGGAGVPGGAGVPGGAGVPGGAGVPGGAGVPGGAGVPGGAGVPGGAGVPGGAGVPGGAGVPGGAGVPGGAGVPGGAGVPGGAGVPGGAGVPGGAGVPGGAGVPGGAGVPGGAGVPGGAGVPGGAGVPGGAGVPGGAGVPGGAGVPGGAGVPGGAGVPGGAGVPGGAGVPGGAGVPGGAGVPGGAGVPGGAGVPGGAGVPGGAGVPGGAGVPGGAGVPGGAGVPGGAGVPGGAGVPGGAGVPGGGVLPGVGGVLPGVGGVLPGVGGVLPGVGGVLPGVGGVLPGVGGVLPGVGGVLPGVGGVLPGVGGVLPGVGGVLPGVGGVLPGVGGVLPGVGGVLPGVGGVLPGVGGVLPGVGGVLPGVGGVLPGVGGVLPGVGGVLPGVGGVLPGVGGVLPGVGGVLPGVGGVLPGVGGVLPGVGGVLPGVGGVLPGVGGVLPGVGGVLPGVGGVLPGVGGVLPGVGGVLPGVGGVLPGVGGVLPGVGGVLPGVGGVLPGVGGVLPGVGGVLPGVGGVLPGVGGVLPGVGGVLPGVGGVLPGVGGVLPGVGGVLPGVGGVLPGVGGVLPGVGGVLPGVGGVLPGVGGVLPGVGGVLPGVGGVLPGVGGVLPGVGGVLPGVGGVLPGVGGVLPGVGGVLPGVGG
modifications: conjugated to Sali via ABA-MPBH linker
- hydrodynamic diameter (DLS) [3]: 51.2±18.2 nm
- cytotoxicity, times lower than Sali-ABA-MPBH alone ([1]; regular 4T1-luc cells): 2.6 times
- IC50 ([1]; regular 4T1-luc cells, 72 hours, read-out: IC50): 42.2 µM
- times more toxic to mammosphere 4T1-luc cells (CSCs) than to regular 4T1-luc cells [4]: about eight
- IC50 ([4]; mammosphere 4T1-luc cells, 72 hours): 5.8 µM
- release at the neutral pH [5]: no detectable release
- elimination half-life, times longer than free Sali-ABA administration [6]: 35 times
- median overall survival ([7]; days after tumor inoculation): 39 days
- development of metastasis in treated mice ([7]; mouse, in vivo, listed as iTEP-MPBH-ABA-Sali NP): No mice in the NP-treated group developed metastasis; also recorded: zero metastasis
- inhibition of primary tumor growth ([7]; seven intravenous doses): slowed primary tumor growth
